Results: article PMC8761493, “New insights into the phosphorylation of the threonine motif of the β1 integrin cytoplasmic domain” (Life Science Alliance, 2022)
Blank lines part the entries; values can stand above or below the molecule they belong to. Non-standard residues stand in square brackets, D forms with d. No end group written: not given here. pT = C[C@@H](OP(=O)(O)O)[C@H](N)C(=O)O

Assays:
[1] = tested on: anti-β1-pTpT integrin antibody (Abcam); assay: Integrin peptide ELISA (direct ELISA, immobilized tail peptides); assay type: binding; conditions: antibody dilution range 1:500 to 1:10,000 (Fig 1E)
Experimental: (§1) The plates were blocked with 200 μl PBS containing 3% BSA for 1 h at room temperature and then washed thrice with 200 μl PBS. Different dilutions of the anti–β1-pTpT antibodies (Thermo Fisher Scientific and Abcam) in 100 μl PBS supplemented with 3% BSA were incubated for 2 h at room temperature. After washing thrice with 200 μl PBS, 100 μl of anti-rabbit-IgG HRP-conjugate was added (1:10,000 in PBS supplemented with 3% BS) and incubated for 1 h at room temperature. The plates were washed thrice with 200 μl PBS, developed with 100 μl of ABTS substrate solution (1-Step ABTS; Thermo Fisher Scientific) before measuring absorbance at λ = 405 nm in a SpectraMax ABS Plus plate reader (Molecular Devices).

[2] = tested on: anti-β1-pTpT integrin antibody (Thermo Fisher Scientific); assay: as above; assay type: binding; conditions: antibody dilution range 1:500 to 1:10,000 (Fig 1D)
Experimental: as §1

FNIII7-10^RGD = assay: AFM-based single-cell force spectroscopy (binding probability); single fibroblast on a concanavalin A-coated cantilever brought onto glass coated with 50 μg/ml FN fragment; contact force 200 pN, contact time ~300 ms, 37°C, 1 μM cilengitide
FNIII7-10^ΔRGD = assay: as above
endogenous SNX17 = assay: Peptide pull-down from whole cell lysate, Western blot; assay type: binding; conditions: Western blot, n = 5
Experimental: (§2) Before use, peptides were immobilized on 25 μl Dynabeads MyOne Streptavidin C1 (10 mg/ml; Invitrogen) in Mammalian Protein Extraction Reagent (Thermo Fisher Scientific) containing protease inhibitors (cOmplete; Roche) and phosphatase inhibitors (Phosphatase Inhibitor Cocktail 2 and 3; Sigma-Aldrich) for 3 h at 4°C. Cell lysates were prepared with MPER containing protease and phosphatase inhibitors and 0.5 mg of supernatant was incubated with the peptide-coated beads at 4°C under constant rotation. For pull-downs with recombinant proteins, synthetic β1 integrin tail peptides were immobilized on 25 μl Dynabeads MyOne Streptavidin C1 (10 mg/ml; Invitrogen) for 3 h at 4°C, incubated with 2% BSA in Mammalian Protein Extraction Reagent (Thermo Scientific Scientific) for 30 min at 4°C to block unspecific binding before adding kindlin-2 or THD (conc 2.5 and 8.5 nM, respectively) and further incubation on a rotator for 2 h at 4°C. After washing the beads three times with lysis buffer, the proteins bound to the beads were eluted using Laemmli buffer, separated on a 10% SDS–PAGE, and analyzed by Western blotting.

endogenous kindlin-2 = assay: as above; assay type: binding; conditions: Western blot, n = 5
Experimental: as §2

[3] = molecular target: talin-1 head domain (THD) (UniProt P26039); assay: Microscale thermophoresis (MST) affinity measurement; assay type: binding; conditions: 200 nM Atto488-labeled β1-tail peptide, 20 mM Tris pH 7.5, 200 mM NaCl, 1 mM TCEP, 0.05% Tween-20
Experimental: All MST measurements were performed on a Monolith NT.115 red-blue (Nanotemper) using premium-coated capillaries to reduce non-specific interaction of the proteins with the glass surface. Both interaction partners (ligand and receptor) were transferred into MST buffer (20 mM Tris, pH 7.5, 200 mM sodium chloride, 1 mM tris(2-carboxyethyl)phosphine [TCEP], 0.05% Tween-20) to avoid artifacts derived from buffer mismatches. […] The measurements were carried out at 20% light emitting diode power and 20% and 40% MST power. Data were analyzed using the MO Affinity Analysis Software (Nanotemper).

[4] = molecular target: β1-pTpT peptide, N-terminally desthiobiotinylated; assay: pull-down; desthiobiotinylated β1-tail peptides on Dynabeads MyOne Streptavidin C1; 0.5 mg whole cell lysate in MPER with protease and phosphatase inhibitors, 4°C; Western blot and densitometry
kindlin-2 = molecular target: T1, kindlin-2 (Homo sapiens, UniProt Q96AC1); assay: Microscale thermophoresis (MST) affinity measurement; assay type: binding; conditions: 200 nM Atto488-labeled β1-tail peptide, 20 mM Tris pH 7.5, 200 mM NaCl, 1 mM TCEP, 0.05% Tween-20
T1 sequence (Q96AC1 1-680): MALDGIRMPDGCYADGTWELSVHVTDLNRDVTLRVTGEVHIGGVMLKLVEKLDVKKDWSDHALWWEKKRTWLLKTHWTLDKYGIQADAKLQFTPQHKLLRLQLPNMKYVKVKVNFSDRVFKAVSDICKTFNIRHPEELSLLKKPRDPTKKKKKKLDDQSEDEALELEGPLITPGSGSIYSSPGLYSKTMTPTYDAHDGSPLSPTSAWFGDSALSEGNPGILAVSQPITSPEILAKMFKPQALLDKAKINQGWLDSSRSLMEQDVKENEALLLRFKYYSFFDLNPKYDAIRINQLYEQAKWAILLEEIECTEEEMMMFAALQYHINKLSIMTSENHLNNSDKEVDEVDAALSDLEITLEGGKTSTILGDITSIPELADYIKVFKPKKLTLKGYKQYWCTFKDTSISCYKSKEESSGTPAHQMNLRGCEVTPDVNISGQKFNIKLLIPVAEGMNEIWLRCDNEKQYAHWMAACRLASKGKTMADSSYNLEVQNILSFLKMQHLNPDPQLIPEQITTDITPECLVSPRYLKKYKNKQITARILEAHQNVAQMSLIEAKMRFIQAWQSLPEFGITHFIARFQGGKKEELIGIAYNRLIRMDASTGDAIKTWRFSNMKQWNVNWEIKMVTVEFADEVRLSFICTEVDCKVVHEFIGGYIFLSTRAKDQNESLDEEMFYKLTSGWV

[5] = molecular target: T2, recombinant talin-1 head domain (THD); assay: MST
T2 chain: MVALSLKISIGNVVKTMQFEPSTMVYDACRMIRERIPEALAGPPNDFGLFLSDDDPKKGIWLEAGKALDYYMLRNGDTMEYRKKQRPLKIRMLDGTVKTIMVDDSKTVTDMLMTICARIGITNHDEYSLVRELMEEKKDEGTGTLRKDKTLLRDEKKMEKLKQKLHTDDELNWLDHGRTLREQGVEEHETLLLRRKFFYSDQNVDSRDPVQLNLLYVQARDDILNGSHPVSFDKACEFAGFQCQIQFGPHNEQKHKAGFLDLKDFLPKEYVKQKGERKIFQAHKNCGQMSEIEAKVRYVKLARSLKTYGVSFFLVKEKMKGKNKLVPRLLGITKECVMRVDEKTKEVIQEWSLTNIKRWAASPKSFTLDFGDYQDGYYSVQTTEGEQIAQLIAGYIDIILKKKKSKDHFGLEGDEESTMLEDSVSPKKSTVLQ

recombinant kindlin-2 = molecular target: T3, recombinant kindlin-2 (UniProt Q8CIB5 1-680); assay: MST
T3 chain: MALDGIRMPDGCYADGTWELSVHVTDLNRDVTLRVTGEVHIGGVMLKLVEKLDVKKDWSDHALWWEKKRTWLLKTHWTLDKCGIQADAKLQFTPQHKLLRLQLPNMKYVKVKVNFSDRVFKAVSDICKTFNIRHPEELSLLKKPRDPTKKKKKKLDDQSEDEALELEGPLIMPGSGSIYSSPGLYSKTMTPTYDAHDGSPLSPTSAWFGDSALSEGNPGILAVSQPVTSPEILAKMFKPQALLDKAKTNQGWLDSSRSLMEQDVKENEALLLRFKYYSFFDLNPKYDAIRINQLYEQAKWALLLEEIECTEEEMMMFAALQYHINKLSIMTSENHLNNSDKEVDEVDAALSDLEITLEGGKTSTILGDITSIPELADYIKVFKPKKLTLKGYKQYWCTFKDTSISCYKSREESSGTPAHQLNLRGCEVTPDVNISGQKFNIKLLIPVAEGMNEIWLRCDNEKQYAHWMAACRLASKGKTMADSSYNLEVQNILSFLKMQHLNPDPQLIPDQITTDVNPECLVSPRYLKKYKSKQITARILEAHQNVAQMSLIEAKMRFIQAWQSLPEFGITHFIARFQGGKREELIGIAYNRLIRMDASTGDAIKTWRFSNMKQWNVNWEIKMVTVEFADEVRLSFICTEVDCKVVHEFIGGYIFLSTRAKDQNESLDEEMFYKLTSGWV

Chain of β1-TT/AA integrin on β1-KO fibroblasts (P09055 whole entry, looked up): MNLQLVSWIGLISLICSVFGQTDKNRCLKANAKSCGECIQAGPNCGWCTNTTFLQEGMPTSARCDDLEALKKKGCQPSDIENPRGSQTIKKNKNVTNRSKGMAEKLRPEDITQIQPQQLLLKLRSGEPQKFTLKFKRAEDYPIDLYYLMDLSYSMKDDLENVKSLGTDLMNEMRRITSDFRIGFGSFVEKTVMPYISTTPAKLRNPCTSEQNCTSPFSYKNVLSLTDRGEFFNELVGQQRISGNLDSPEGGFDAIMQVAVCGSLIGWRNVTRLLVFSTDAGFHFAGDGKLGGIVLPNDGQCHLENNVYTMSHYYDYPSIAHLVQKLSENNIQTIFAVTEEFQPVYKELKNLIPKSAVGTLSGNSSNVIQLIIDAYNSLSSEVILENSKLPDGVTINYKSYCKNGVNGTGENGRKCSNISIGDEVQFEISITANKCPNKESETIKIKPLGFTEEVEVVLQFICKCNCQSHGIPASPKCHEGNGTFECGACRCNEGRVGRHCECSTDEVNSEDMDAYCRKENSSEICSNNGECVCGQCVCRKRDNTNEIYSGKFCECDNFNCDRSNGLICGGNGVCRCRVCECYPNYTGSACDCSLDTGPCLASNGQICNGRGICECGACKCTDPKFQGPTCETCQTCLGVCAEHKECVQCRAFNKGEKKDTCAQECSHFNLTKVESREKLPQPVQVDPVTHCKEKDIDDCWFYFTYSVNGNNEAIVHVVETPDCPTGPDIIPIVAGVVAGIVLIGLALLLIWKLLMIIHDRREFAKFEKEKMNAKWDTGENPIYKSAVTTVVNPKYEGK
Chain of β1-TT/DD integrin on β1-KO fibroblasts (P09055 whole entry, looked up): as above
Chain of β1-TT/EE integrin on β1-KO fibroblasts (P09055 whole entry, looked up): as above
Chain of talin-1 head domain (THD) (P26039 whole entry, the tested form may be a part): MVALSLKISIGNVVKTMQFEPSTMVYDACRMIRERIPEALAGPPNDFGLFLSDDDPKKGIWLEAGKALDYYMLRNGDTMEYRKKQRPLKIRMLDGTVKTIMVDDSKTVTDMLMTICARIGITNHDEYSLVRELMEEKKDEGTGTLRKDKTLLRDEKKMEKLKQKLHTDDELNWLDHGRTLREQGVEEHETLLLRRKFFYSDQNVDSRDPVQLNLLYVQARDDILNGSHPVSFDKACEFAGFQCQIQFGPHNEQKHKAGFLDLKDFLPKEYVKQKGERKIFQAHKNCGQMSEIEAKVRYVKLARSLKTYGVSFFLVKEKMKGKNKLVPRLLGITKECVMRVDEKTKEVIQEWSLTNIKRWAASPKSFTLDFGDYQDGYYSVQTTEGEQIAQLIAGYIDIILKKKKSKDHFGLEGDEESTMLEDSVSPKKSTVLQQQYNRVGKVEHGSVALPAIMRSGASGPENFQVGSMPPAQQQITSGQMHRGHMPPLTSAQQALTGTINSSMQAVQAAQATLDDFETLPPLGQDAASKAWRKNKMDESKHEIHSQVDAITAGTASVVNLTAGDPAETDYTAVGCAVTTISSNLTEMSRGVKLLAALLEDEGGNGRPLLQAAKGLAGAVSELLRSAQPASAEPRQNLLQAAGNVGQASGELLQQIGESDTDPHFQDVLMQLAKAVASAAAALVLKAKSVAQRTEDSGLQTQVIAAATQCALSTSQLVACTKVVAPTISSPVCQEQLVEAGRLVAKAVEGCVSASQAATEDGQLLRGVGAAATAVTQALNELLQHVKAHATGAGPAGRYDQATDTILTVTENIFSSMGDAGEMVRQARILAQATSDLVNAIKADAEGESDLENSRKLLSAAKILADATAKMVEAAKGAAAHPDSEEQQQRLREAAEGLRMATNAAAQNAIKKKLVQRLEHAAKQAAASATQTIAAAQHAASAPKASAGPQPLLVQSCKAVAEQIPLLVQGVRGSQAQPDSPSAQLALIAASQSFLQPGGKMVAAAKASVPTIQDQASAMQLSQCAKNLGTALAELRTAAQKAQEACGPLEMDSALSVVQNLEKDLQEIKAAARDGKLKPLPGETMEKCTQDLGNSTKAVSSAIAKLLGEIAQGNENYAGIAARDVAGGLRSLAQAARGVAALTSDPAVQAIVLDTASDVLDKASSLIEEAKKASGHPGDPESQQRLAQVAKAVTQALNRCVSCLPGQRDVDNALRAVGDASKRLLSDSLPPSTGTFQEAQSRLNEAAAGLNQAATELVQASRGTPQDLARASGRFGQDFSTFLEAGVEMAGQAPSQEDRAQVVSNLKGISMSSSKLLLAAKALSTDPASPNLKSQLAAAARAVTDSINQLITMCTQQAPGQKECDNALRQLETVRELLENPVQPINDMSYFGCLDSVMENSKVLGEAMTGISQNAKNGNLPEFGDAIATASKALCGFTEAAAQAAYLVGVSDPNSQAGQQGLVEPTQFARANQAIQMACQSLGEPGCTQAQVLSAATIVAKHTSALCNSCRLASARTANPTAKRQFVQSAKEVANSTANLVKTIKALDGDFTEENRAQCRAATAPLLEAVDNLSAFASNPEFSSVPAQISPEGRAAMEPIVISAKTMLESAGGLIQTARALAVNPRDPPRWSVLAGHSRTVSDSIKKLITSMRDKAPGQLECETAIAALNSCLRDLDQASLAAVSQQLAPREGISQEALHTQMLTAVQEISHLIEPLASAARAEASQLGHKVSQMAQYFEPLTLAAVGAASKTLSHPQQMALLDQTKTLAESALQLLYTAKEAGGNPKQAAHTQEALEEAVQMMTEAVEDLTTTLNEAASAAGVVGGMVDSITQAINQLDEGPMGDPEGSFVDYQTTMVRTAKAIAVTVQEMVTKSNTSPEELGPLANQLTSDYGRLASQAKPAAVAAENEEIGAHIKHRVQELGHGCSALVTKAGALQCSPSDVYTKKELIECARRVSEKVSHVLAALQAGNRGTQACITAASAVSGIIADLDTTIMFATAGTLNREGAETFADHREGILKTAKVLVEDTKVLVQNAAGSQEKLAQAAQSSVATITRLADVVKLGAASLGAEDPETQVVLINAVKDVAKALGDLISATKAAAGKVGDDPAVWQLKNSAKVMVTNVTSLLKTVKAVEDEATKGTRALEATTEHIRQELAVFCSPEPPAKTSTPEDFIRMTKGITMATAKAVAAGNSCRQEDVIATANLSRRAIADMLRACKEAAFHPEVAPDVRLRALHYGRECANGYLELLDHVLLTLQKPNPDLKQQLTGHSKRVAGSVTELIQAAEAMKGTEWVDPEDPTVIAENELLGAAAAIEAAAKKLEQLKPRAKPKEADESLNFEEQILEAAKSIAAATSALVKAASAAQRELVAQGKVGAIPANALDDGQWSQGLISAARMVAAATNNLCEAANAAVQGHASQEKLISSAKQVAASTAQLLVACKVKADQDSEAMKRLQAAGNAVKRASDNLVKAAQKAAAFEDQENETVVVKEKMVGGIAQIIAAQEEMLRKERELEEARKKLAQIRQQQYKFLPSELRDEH

- binding of the anti-β1-pTpT antibody to the immobilized peptide (in words) [1]: detected binding
- binding of the anti-β1-pTpT antibody to the immobilized peptide (in words) [2]: detected binding
Molecule: KWDTGENPIYKEAVpTpTFTVDFTFNKFNPKYEGK-OH [β3/β5-pTpT, chimeric β3/β5-pTpT peptide]

- percent of binding probability experiments with multiple unbinding events (FNIII7-10^RGD): 32.3%
- percent of binding probability experiments with more than one unbinding event (FNIII7-10^ΔRGD): < 3%
Molecule: β1-WT integrin on β1-KO fibroblasts (β1-class integrins) (from UniProt P09055 21-798) (receptor)

Molecule: EYEFEPDKVDTGAKGTKMAKNEKKFRNYTVHNIWESRKVAP-OH [scrambled, scrambled β1 integrin cytoplasmic tail peptide used as control, reference compound]
- SNX17 binding to the peptide (in words) (endogenous SNX17): lost
- kindlin-2 binding to the peptide (in words) (endogenous kindlin-2): lost

- Kd [3]: 140 ± 20 µM
Molecule: CC[C@H](C)[C@H](NC(=O)[C@@H]1CCCN1C(=O)[C@H](CC(N)=O)NC(=O)[C@H](CCC(=O)O)NC(=O)CNC(=O)[C@@H](NC(=O)[C@H](CC(=O)O)NC(=O)[C@H](Cc1c[nH]c2ccccc12)NC(=O)[C@H](CCCCN)NC(=O)[C@H](C)NC(=O)[C@H](CC(N)=O)NC(=O)[C@H](CCSC)NC(=O)[C@H](CCCCN)NC(=O)[C@H](CCC(=O)O)NC(=O)[C@H](CCCCN)NC(=O)[C@H](CCC(=O)O)NC(=O)[C@H](Cc1ccccc1)NC(=O)[C@H](CCCCN)NC(=O)[C@H](C)NC(=O)[C@H](Cc1ccccc1)NC(=O)[C@H](CCC(=O)O)NC(=O)[C@H](CCCNC(=N)N)NC(=O)[C@H](CCCNC(=N)N)NC(=O)[C@H](CC(=O)O)NC(=O)[C@@H](N)Cc1c[nH]cn1)[C@@H](C)O)C(=O)N[C@@H](Cc1ccc(O)cc1)C(=O)N[C@@H](CCCCN)C(=O)N[C@@H](CO)C(=O)N[C@@H](C)C(=O)N[C@H](C(=O)N[C@H](C(=O)N[C@H](C(=O)N[C@H](C(=O)N[C@H](C(=O)N[C@@H](CC(N)=O)C(=O)N1CCC[C@H]1C(=O)N[C@@H](CCCCN)C(=O)N[C@@H](Cc1ccc(O)cc1)C(=O)N[C@@H](CCC(=O)O)C(=O)NCC(=O)N[C@@H](CCCCN)C(=O)O)C(C)C)C(C)C)[C@@H](C)O)[C@@H](C)O)C(C)C [β1-WT]

- percent of binding probability experiments with multiple unbinding events (FNIII7-10^RGD): 3.8%
- percent of binding probability experiments with more than one unbinding event (FNIII7-10^ΔRGD): < 3%
Molecule: β1-TT/DD integrin on β1-KO fibroblasts (from UniProt P09055 21-798) (receptor)

- percent of binding probability experiments with multiple unbinding events (FNIII7-10^RGD): 4.6%
- percent of binding probability experiments with more than one unbinding event (FNIII7-10^ΔRGD): < 3%
Molecule: β1-TT/EE integrin on β1-KO fibroblasts (from UniProt P09055 21-798) (receptor)

- binding in percent of that to β1-WT (densitometry) [4]: 27%
Molecule: endogenous kindlin-2 (from UniProt Q8CIB5 1-680) (natural protein)

- percent of binding probability experiments with multiple unbinding events (FNIII7-10^RGD): 7.7%
- percent of binding probability experiments with more than one unbinding event (FNIII7-10^ΔRGD): < 3%
Molecule: β1-TT/AA integrin on β1-KO fibroblasts (from UniProt P09055 21-798) (receptor)

- binding of the anti-β1-pTpT antibody to the immobilized peptide (in words) [1]: detected binding
- binding of the anti-β1-pTpT antibody to the immobilized peptide (in words) [2]: detected binding
Molecule: LLQEKGGYIPSGPIpTpTIHENEVVKSPSQPG-OH [Wwc2-pTpT, unrelated peptide with a bi-phosphorylated double-threonine motif derived from the cytosolic scaffolding protein Wwc2]

- Kd [3]: 100 ± 15 µM
- Kd (kindlin-2): 151 ± 1 µM
Molecule: HDRREFAKFEKEKMNAKWDTGENPIYKSAVAAVVNPKYEGK [β1-TT/AA]

- Kd (kindlin-2): 4.9 ± 0.7 µM
Molecule: HDRREFAKFEKEKMNAKWDTGENPIAKSAVTTVVNPKYEGK [β1-Y783A]

- Kd [5]: 140 µM
Molecule: HDRREFAKFEKEKMNAKWDTGENPIYKSAV[pT][pT]VVNPKYEGK (also: Atto488 label, position not given here) [β1-pTpT peptide, Atto488-labeled]

- Kd [5]: 170 µM
Molecule: HDRREFAKFEKEKMNAKWDTGENPIYKSAVDDVVNPKYEGK (also: Atto488 label, position not given here) [β1-TT/DD peptide, Atto488-labeled]

- Kd [5]: 100 µM
- Kd (recombinant kindlin-2): 151 µM
Molecule: HDRREFAKFEKEKMNAKWDTGENPIYKSAVAAVVNPKYEGK (also: Atto488 label, position not given here) [β1-TT/AA peptide, Atto488-labeled]

- Kd (recombinant kindlin-2): 4.9 µM
Molecule: HDRREFAKFEKEKMNAKWDTGENPIAKSAVTTVVNPKYEGK (also: Atto488 label, position not given here) [β1-Y783A peptide, Atto488-labeled]

- Kd [5]: 140 µM
Molecule: HDRREFAKFEKEKMNAKWDTGENPIYKSAVTTVVNPKYEGK (also: Atto488 label, position not given here) [β1-WT peptide, Atto488-labeled]
